Biological target: S-enantioselective imine reductase from Mycobacterium smegmatis (S-IRED-Ms) (Mycobacterium smegmatis)
Assay: crystal structure; holo-S-IRED-Ms co-crystallised with 5 mM NADPH; 10 mg/mL protein, 20% (w/v) PEG 3350, 0.2 M sodium formate, sitting drop, 4 °C; 1.55 Å, five monomers in the asymmetric unit

stoichiometry N: 2
Substance: S-enantioselective imine reductase from Mycobacterium smegmatis (S-IRED-Ms) (enzyme)
